Where two headings read alike, the source gives them in different places.

In experiment [1] the target is T1, human TMPRSS6 (matriptase-2) expressed on HEK293T cells, huTMPRSS6-(His)6 (UniProt Q8IU80 10-811).
T1 chain: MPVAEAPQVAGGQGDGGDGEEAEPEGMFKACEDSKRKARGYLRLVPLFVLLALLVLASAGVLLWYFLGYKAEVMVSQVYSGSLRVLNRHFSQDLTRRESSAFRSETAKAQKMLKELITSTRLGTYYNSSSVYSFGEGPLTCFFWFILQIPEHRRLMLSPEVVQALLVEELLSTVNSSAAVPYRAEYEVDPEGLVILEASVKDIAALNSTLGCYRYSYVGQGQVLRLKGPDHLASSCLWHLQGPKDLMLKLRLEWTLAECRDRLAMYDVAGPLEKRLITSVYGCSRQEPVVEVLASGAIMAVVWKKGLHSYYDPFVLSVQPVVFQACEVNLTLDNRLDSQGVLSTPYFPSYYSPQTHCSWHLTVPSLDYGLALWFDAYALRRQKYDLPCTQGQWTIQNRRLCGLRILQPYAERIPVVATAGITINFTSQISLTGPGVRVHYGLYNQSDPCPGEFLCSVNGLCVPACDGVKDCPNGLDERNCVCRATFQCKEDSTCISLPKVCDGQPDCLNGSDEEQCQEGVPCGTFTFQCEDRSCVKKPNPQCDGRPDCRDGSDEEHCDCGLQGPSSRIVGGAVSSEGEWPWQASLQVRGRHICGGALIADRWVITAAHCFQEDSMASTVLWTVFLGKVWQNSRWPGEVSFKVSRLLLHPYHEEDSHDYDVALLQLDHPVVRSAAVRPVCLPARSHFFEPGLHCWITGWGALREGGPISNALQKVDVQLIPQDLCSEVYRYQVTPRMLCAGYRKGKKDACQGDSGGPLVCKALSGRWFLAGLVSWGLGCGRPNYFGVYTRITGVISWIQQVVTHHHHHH
As to the kind of experiment: FACS. (A flow cytometer gives signals particle by particle.)

Experiment [2] deals with T1, human TMPRSS6 (matriptase-2) expressed …. As to the kind of experiment: cell surface ELISA. In general terms: In an ELISA, binding on a coated surface is turned into a signal by an enzyme label.
Experiment [3] has as its target T2, mouse TMPRSS6 expressed on HEK293T cells, MoTMPRSS6-(His)6 (UniProt Q9DBI0 1-811).
T2 chain: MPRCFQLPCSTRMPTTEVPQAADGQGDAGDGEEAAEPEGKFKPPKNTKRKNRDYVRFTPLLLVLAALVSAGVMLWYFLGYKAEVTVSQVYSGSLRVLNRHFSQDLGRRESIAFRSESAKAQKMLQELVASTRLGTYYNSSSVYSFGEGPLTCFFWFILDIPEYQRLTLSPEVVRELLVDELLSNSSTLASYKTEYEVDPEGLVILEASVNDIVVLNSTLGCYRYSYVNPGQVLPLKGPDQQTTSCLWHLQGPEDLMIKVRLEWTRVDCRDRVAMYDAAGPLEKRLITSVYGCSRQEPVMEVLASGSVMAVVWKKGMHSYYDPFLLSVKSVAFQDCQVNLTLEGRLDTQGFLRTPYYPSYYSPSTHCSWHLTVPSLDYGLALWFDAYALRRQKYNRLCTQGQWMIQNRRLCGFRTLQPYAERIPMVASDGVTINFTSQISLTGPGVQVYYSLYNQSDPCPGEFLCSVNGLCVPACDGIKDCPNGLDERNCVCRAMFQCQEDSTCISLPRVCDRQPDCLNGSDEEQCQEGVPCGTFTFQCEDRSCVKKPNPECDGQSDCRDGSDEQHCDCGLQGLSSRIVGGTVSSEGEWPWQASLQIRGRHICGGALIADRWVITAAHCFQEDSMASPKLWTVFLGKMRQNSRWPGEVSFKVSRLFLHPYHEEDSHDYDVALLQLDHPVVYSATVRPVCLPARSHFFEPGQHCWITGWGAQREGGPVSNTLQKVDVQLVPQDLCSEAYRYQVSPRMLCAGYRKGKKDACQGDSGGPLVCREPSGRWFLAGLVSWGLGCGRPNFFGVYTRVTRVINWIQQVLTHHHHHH
Briefly: cell surface ELISA.

Experiment [4] addresses T2, mouse TMPRSS6 expressed on HEK293T …. As to the kind of experiment: cell surface ELISA.
In experiment [5] the target is T3, mouse TMPRSS6 expressed on HEK293T cells, MoTMPRSS6-(His)6 (mouse, UniProt Q9DBI0 1-811).
T3 construct: HEK293T cells stably expressing the construct; also called murine TMPRSS6
T3 sequence: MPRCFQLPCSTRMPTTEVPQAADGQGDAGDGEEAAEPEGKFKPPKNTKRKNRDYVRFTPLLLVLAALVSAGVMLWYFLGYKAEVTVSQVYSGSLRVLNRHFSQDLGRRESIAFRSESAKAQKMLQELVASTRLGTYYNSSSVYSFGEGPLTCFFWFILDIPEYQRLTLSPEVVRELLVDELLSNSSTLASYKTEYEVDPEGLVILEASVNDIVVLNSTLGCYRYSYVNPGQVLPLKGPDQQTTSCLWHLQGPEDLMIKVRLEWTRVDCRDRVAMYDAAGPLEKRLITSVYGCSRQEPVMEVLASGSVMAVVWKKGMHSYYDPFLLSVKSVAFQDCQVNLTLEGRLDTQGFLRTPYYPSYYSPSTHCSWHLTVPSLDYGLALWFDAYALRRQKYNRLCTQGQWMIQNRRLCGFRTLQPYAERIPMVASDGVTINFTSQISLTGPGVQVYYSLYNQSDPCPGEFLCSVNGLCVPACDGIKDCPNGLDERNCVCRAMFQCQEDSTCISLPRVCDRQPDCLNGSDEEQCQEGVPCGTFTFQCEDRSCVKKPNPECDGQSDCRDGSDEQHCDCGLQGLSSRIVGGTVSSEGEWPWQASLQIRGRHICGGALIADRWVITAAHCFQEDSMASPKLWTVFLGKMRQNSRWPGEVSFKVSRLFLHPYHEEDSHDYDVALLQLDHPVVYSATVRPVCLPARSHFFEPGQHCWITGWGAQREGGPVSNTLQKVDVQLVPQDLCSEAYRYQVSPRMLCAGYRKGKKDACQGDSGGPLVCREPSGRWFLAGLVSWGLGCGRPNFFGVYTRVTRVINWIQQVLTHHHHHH
As to the kind of experiment: summary of Example 4 (cell surface ELISA). How it is done:
HEK293T cells stably expressing mouse TMPRSS6 (generated by LakePharma Inc as described above, FIGS. 4J, 4L, 4N, 4P, 4R, 4T) or cynomolgus monkey (generated in house as described above, FIGS. 4K, 4M, 4O, 4Q, 4S, 4U) were fixed with methanol (100%), and washed with dPBS (Dulbecco's phosphate-buffered saline, Corning Cellgro) before incubation with various concentrations of anti-TMPRSS6 antibodies and their humanized variants diluted in BSA medium (DMEM+1% Pen/Strep+10 mM HEPES+1 mg/ml BSA (Sigma-Aldrich)). Purified mouse IgG (FIGS. 4J-4O) or Human IgG1 (FIGS. 4P-4U) was used as a control. After incubation, cells were washed with BSA medium and then incubated with goat anti-mouse (Invitrogen, FIGS. 4J-4O) or anti-human (Millipore, FIGS. 4P-4U) IgG conjugated with HRP as a 2° antibody. Finally, cells were washed with dPBS to remove unbound antibody and color developed with ELISA liquid substrate (Sigma-Aldrich), followed by stopping the reaction with addition of the same volume of […] 1M H₂SO₄. Bound antibody was measured by absorbance at OD₄₅₀ₙₘ.

B1: MWTx-002 anti-TMPRSS6 monoclonal antibody (antibody, mouse IgG2b, kappa, V domains shown)
VH: EVQLQQSGAELVKPGASVKLSCTASGFNIKDYYIHWVKERTEQGLEWFGRIDPEDGESEYAPKFQGKATLTADTSSNTAYLQLSSLTSEDTAVYYCTRGDSMMVTYFDYWGQGTTLTVSS
VL: DIVMTQSHKFMSTSVGDRVSITCKASQDVSTAVAWYQQKPGQSPKLLIYWAFTRHTGVPDRFTSTGSGTDYALTISSVQAEDLALYYCQQHYRSPWTFGGGTKLEIKR
notes: Mouse monoclonal antibody from hybridoma (ATCC PTA-126760)
As for B1, the EC50 in experiment [1] was 0.2 µg/mL; in experiment [2], 0.04 µg/mL.

B2: MWTx-003 anti-TMPRSS6 monoclonal antibody (antibody, mouse IgG2b, kappa, V domains shown)
VH: EVQLQQSGAELVKPGASVKLSCTASGFNIEDYYIHWVKERTEQGLEWIGRIDPEDGETTYAPQFQGKATIIPDTSSNTAYMQLSSLTSEDAAVYYCARSIYLDPMDYWGQGTSVTVSS
VL: DIVMTQSHKFMSTSVGDRVSITCKASQDVTTAVAWYQQKPGQSPKILIYWATTRHTGVPDRFTGSISGTTYILTISSVQAEDLALYYCQQHYSTPYTFGGGTKLEIKR
notes: Mouse monoclonal antibody from hybridoma (ATCC PTA-126761); The recombinant version r4K12B has the same HC and LC; also called r4K12B; recombinant MWTx-003
Regarding B2, the EC50 is 0.2 µg/mL in experiment [1], 0.07 µg/mL in experiment [3] and 0.05 µg/mL in experiment [2].

B3: humanized anti-TMPRSS6 antibody variant hzMWTx-001 Var (antibody, human IgG1, kappa, N297A, V domains shown)
VH: EVQLVQSGAEVKKPGASVKVSCKASGYTFTSYWITWVRQAPGQRLEWIGNIYPGSGSTYYNEKFKSKATITRDTSSRTAYMELSSLRSEDTAVYYCAPYDADYAMDYWGQGTLVTVSS
VL: DIQMTQSPSSLSASVGDRVTITCKASQDISNYLSWFQQKPGKAPKLLIYRANRLVEGVPSRFSGSGSGTDFTLTISSLQPEDFATYFCLQYDEFPLTFGGGTKVEIKR
notes: Human IgG1 / kappa
Turning to B3, the EC50 in experiment [4] amounted to 0.03 µg/mL. Further, the binding result in experiment [5] is recorded as “binds”.

B4: MWTx-001 anti-TMPRSS6 monoclonal antibody (antibody, mouse IgG2a, kappa, V domains shown)
VH: QVQLQQPGAELAKPGASVKMSCKASGYTFTSYWITWVKQRPGQDLEWIGNIYPGSGSTYYNEKFKSKATLTVDTSSRTAYMQLSSLTSADSAVYYCAPYDSDYAMDYWGQGTSVTVSS
VL: DIKMTQSPSSMYASLGERVTITCKASQDINNYLSWFQQKPGKSPKTLIYRANRLVDGVPSRVSGSGSGQDYSLTISSLEYEDVGIYFCLQYDEFPLTFGAGTKLELKR
notes: Mouse monoclonal antibody from hybridoma (ATCC PTA-126759)
As for B4, the EC50 in experiment [1] was found to be 1 µg/mL; in experiment [3], 0.25 µg/mL; in experiment [2] it was 0.2 µg/mL.

B5: humanized anti-TMPRSS6 antibody variant hzMWTx-003 Var (antibody, human IgG1, kappa, L234A L235A, V domains shown)
VH: QVQLVQSGAEVKKPGASVKVSCKASGFNIEDYYMHWVRQAPGQRLEWMGRIDPEDAETTYSPKFQGRVTIIPDTSANTAYMELSSLRSEDTAVYYCARSIYLDPMDYWGQGTLVTVSS
VL: DIQMTQSPKSLSASVGDRVTITCRASQDVTTALAWYQQKPGQSPKLLIYWATTRHSGVPSRFSGSGSGTDFTLTISSLQPEDFATYYCQQHYSTPYTFGQGTKLEIKR
notes: Human IgG1 / kappa
Consider B5, for which it took 0.31 µg/mL to reach a half-maximal effect in experiment [4] (EC50). For the same molecule, the binding result in experiment [5] is “binds”.

As usually defined, the EC50 is the concentration needed to bring the measured effect to its halfway point. A high value points to lower potency in that assay.
